Assay results published in patent US20230127946A1 (SUZHOU PRO HEAL PHARMACEUTICALS TECHNOLOGY, published 2023).

Key:
Human IGF-1R protein = biological target: T1, Human IGF-1R protein (human, UniProt P08069 31-932); assay: BLI (Octet RED96), antibody captured on AHC biosensor, IGF-1R in solution, 1:1 model
T1 construct: Bought protein; also called human IGF-1R (ARCO, No. IGR-H5229)
Excerpt: After 14 days of culture, the culture supernatant was collected by centrifugation, and purify the antibodies with affinity purification column. Octet RED96 protein interaction workstation was used to detect the affinity of the above purified antibodies with human IGF-1R (Human IGF-1R, ARCO, No. IGR-H5229) separately. Biosensor AHC (18-5060) was used to capture the samples, and then the captured samples were compared with human IGF-1R. The dynamics of binding and dissociation of […] were detected. Dynamics uses 1:1 combined model for fitting analysis. The brief action steps are: protein loading for 200 s, binding for 180 s, dissociation for 300 s, regeneration for 30 s.

IGF-1R on MCF-7 cells = IGF-1R on MCF-7 cells (UniProt P08069 31-1367, limits assumed); assay: cell-based or functional assay
Sequence of IGF-1R on MCF-7 cells (P08069 31-1367 limits assumed): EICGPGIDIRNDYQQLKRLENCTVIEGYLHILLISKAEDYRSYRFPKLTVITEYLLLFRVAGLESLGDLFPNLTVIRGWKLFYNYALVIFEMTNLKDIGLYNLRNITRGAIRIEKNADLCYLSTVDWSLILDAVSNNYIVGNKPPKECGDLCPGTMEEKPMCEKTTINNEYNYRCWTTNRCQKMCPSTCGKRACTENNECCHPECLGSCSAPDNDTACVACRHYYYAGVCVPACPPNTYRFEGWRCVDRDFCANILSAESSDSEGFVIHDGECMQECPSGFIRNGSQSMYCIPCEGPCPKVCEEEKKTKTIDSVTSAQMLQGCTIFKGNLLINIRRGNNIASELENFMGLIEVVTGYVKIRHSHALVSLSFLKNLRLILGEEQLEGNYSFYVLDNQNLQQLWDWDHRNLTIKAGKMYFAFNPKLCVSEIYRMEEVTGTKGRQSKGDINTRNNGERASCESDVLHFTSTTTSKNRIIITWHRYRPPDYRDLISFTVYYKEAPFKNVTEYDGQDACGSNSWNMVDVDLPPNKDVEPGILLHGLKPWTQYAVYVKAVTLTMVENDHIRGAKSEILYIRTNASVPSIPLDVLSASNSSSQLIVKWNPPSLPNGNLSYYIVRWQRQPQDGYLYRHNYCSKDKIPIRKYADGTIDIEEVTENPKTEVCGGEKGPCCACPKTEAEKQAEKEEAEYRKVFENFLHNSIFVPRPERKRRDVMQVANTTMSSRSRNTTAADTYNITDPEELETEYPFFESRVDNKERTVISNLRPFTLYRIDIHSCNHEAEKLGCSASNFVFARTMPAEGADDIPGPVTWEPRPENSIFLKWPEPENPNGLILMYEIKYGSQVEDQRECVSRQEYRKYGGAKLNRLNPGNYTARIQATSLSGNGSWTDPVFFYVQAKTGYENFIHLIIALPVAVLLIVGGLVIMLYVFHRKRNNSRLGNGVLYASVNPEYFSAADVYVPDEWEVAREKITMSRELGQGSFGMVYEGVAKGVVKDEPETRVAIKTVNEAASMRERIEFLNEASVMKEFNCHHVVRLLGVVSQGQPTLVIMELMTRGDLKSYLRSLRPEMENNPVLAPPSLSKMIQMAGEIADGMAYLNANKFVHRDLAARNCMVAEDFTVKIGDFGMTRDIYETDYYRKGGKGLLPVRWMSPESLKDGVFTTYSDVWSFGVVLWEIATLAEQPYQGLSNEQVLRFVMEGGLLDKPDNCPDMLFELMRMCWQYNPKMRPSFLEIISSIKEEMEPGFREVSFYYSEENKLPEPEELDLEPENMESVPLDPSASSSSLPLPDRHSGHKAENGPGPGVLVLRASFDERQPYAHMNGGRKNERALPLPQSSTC

T1 sequence (P08069 31-932 limits assumed): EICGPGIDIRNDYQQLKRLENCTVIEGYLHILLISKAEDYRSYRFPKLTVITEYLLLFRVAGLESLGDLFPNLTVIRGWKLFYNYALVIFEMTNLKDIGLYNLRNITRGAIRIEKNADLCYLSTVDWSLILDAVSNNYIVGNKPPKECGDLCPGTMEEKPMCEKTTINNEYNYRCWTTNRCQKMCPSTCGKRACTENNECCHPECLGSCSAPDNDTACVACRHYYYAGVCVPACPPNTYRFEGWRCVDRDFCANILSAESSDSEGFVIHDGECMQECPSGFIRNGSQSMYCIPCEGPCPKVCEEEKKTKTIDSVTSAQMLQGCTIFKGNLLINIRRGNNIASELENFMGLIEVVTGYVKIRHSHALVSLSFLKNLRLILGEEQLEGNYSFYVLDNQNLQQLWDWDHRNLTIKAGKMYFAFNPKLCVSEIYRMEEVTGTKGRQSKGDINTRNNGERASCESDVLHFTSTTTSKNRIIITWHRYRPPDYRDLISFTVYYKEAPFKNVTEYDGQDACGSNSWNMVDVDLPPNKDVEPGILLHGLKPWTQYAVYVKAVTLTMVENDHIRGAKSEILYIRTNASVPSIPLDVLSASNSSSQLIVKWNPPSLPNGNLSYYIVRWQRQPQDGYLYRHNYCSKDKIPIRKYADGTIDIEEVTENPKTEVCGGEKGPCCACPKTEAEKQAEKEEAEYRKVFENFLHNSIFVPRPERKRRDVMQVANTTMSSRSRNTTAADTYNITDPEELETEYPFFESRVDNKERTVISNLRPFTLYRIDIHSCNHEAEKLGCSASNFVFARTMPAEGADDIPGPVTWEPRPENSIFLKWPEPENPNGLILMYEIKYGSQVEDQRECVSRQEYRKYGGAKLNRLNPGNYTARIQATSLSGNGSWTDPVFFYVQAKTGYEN

Binder	Kd (Human IGF-1R protein) [nM]	koff (Human IGF-1R protein) [s⁻¹]	kon (Human IGF-1R protein) [M⁻¹ s⁻¹]	IC50 of inhibition of MCF-7 cell proliferation (CCK8, OD450) (IGF-1R on MCF-7 cells) [µg/mL]
PHP1003-7 (antibody, human IgG1, kappa, L234A L235A, V domains shown, Variable and constant regions are directly spliced) VH: QVQLQESGPGLVKPSETLSLTCTVSGYSITGGYLWNWIRQPPGKGLEWIGYISYDGTNNYKPSLKDRVTISRDTSKNQFSLKLSSVTAADTAVYYCARYGRVFFDYWGQGTLVTVSS VL: DIVMTQSPLSLPVTPGEPASISCRSSQSIVHSNGNTYLQWYLQKPGQSPQLLIYKVSNRLYGVPDRFSGSGSGTDFTLKISRVEAEDVGVYYCFQGSHVPWTFGQGTKVEIKR	8.98	0.000883	98300	2.14
PHP1003-2 (antibody, human IgG1, kappa, L234A L235A, V domains shown, Variable and constant regions are directly spliced) VH: EVQLVQSGGGLVKPGGSLRLSCAASGFTFSSFAMHWVRQAPGKGLEWISVIDTRGATYYADSVKGRFTISRDNAKNSLYLQMNSLRAEDTAVYYCARLGNFYYGMDVWGQGTTVTVSS VL: EIVLTQSPGTLSVSPGERATLSCRASQSIGSSLHWYQQKPGQAPRLLIKYASQSLSGIPDRFSGSGSGTDFTLTISRLEPEDFAVYYCHQSSRLPHTFGQGTKVEIKR	3.83	0.000874	228000	3.93
PHP1003-5 (antibody, human IgG1, kappa, L234A L235A, V domains shown, Variable and constant regions are directly spliced) VH: EVQLLESGGGLVQPGGSLRLSCTASGFTFSSYAMNWVRQAPGKGLEWVSAISGSGGTTFYADSVKGRFTISRDNSRTTLYLQMNSLRAEDTAVYYCAKDLGWSDSYYYYYGMDVWGQGTTVTVSS VL: DIQMTQFPSSLSASVGDRVTITCRASQGIRNDLGWYQQKPGKAPKRLIYAASRLHRGVPSRFSGSGSGTEFTLTISSLQPEDFATYYCLQHNSYPCSFGQGTKLEIKR	0.701	0.000396	565000	0.96
PHP1003-4 (antibody, human IgG1, kappa, L234A L235A, V domains shown, Variable and constant regions are directly spliced) VH: EVQLVQSGAEVKKPGSSVKVSCKASGGTFSSYAISWVRQAPGQGLEWMGGIIPIFGTANYAQKFQGRVTITADKSTSTAYMELSSLRSEDTAVYYCARAPLRFLEWSTQDHYYYYYMDVWGKGTTVTVSS VL: SSELTQDPAVSVALGQTVRITCQGDSLRSYYATWYQQKPGQAPILVIYGENKRPSGIPDRFSGSSSGNTASLTITGAQAEDEADYYCKSRDGSGQHLVFGGGTKLTVLR	5.91	0.00146	247000	4.05
PHP1003-6 (antibody, human IgG1, kappa, L234A L235A, V domains shown, Variable and constant regions are directly spliced) VH: QVQLQESGGGVVQPGRSLRLSCSASGFTFSDYYMYWVRQAPGKGLEWVAYITNYGGSTYYPDTVKGRFTISRDNAKNTLFLQMDSLRPEDTGVYFCARQSNYDYDGWFAYWGQGTPVTVSS VL: DIQLTQSPSSLSASVGDRVTITCKASQEVGTAVAWYQQKPGKAPKLLIYWASTRHTGVPSRFSGSGSGTDFTFTISSLQPEDIATYFCQQYSNYPLTFGQGTKVEIKR	1.12	0.000472	422000	3.81
PHP1003-1 (antibody, human IgG1, kappa, L234A L235A, V domains shown, Variable and constant regions are directly spliced; also called anti-IGF-1R antibody PHP1003-1) VH: QVQLQESGPGLVKPSGTLSLTCAVSGGSISSSNWWSWVRQPPGKGLEWIGEIYHSGSTNYNPSLKSRVTISVDKSKNQFSLKLSSVTAADTAVYYCARWTGRTDAFDIWGQGTMVTVSS VL: not shown	1.27	0.000347	274000	2.37
